The target of this assay is purified HLA-A2.1 molecules (human).

Data on two substances can be found in US20030220285A1.

Usually IC50 stands for the point on the concentration scale where inhibition reaches its midpoint. Read a low IC50 as higher potency.

Turning to “HBV Pol 551-A (native HBV pol 551-559) peptide […] (peptide; other documents disagree on this pair)”, the half-maximal inhibitory concentration (IC50) is 200 nM.
As to “HBV Core 18 (HBV core 18-27) peptide […] (peptide; other documents disagree on this pair)”, the IC50 was found to be 3 nM.
